These results are taken from article PMC10045489 (Bioengineering, 2023).

The experiment concerns the target T1, full-length His-tagged SARS-CoV-2 spike protein (wild-type) (SARS-CoV-2, wild-type (Wuhan-Hu-1), UniProt P0DTC2).
T1 construct: also called full-length S-protein; full-length Spike protein; source: CHO Express cells, cell medium purified by Ni-IMAC; not shown: His-tag, C-terminal, kept
Kind of experiment: BLI. To be noted: both partners purified.

B1: Nb20 nanobody (VHH)
VHH: QVQLVESGGGLVQAGGSLRLSCAVSGAGAHRVGWFRRAPGKEREFVAAIGASGGMTNYLDSVKGRFTISRDNAKNTIYLQMNSLKPQDTAVYYCAARDIETAEYIYWGQGTQVTVSS
notes: not shown: ecotin, N-terminal, cleaved; His-tag, N-terminal, cleaved
B1 showed a Kd of roughly 1 nM.
